Assay results taken from doi:10.1101/416032.

Biological target: BG505.SOSIP.664-AviB (HIV-1 (clade A, BG505)) (UniProt Q2N0S6)
Test: BLI

Substance BF520.1 matureVHnaïveVK mAb (antibody) has a Kd of 8.95 nM.

Substance BF520.1 naïveVHmatureVK mAb (antibody) has a Kd of under 0.001 nM.
